Patent publication EP4763988A1 (Minghui Pharmaceutical (Hangzhou) Ltd., dated 2025)
Like-named read-outs stand apart in the source and are kept apart here.

Assays:
[1] = target: T1, Human CDCP1, His Tag (KACTUS, Cat.No. CDC-HM101) (human) (UniProt Q9H5V8); assay: ELISA of E. coli lysate supernatant of the clone on human CDCP1 antigen
T1 sequence (looked up): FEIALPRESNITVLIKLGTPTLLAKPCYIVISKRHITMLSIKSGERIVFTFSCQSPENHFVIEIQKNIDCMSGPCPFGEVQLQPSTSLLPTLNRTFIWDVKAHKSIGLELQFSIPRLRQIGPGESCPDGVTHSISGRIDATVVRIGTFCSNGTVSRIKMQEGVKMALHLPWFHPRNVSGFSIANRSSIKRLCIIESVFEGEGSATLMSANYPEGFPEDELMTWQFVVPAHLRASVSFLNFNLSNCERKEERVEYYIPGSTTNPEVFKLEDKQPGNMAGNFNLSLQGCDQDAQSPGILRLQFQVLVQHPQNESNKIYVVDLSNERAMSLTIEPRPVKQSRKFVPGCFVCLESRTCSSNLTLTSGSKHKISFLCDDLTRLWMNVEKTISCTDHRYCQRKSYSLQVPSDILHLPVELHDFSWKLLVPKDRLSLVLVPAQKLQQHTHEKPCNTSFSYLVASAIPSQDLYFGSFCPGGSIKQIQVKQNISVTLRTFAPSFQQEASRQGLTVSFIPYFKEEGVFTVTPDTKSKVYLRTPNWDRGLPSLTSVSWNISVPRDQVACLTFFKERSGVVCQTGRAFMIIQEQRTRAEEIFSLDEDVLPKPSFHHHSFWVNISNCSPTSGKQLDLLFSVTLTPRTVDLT

[2] = target: T2, human CDCP1 endogenously expressed on tumor cells (HCT116, SW480, HT-29, LNCaP) (human, UniProt Q9H5V8 30-836); assay: flow cytometry on SW480 cells endogenously expressing human CDCP1
T2 construct: whole, on cells; also called fl-CDCP1
T2 sequence (looked up): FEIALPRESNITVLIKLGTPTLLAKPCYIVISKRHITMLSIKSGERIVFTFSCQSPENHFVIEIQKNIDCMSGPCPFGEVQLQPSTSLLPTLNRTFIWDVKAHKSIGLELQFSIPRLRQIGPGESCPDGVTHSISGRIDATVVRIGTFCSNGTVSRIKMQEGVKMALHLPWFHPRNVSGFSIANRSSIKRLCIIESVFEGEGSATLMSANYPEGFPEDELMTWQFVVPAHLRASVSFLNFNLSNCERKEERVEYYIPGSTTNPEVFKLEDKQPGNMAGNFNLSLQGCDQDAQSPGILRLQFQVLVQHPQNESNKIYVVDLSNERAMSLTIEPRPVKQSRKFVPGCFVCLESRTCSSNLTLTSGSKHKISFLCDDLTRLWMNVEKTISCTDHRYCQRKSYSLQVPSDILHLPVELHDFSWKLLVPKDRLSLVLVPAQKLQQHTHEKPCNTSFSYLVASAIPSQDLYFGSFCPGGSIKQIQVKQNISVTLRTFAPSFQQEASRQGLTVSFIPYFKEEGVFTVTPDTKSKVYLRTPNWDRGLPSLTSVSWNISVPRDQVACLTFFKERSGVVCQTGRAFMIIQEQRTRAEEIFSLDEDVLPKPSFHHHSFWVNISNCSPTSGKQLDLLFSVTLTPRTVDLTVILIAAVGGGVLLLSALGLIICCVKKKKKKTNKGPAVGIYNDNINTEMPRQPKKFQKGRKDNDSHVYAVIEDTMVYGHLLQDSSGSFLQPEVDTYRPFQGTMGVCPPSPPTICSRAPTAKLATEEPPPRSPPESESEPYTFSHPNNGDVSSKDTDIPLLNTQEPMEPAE

[3] = target: T2, human CDCP1 endogenously expressed on …; assay: cell-based or functional assay
[4] = target: T2, human CDCP1 endogenously expressed on …; assay: flow cytometry on LNCaP cells endogenously expressing human CDCP1
[5] = target: T2, human CDCP1 endogenously expressed on …; assay: flow cytometry on HCT116 cells endogenously expressing human CDCP1
[6] = target: T3, Human CDCP1, His Tag (KACTUS, Cat.No. CDC-HM101) (human, UniProt Q9H5V8 30-667, limits assumed); assay: ELISA, plate-coated CDCP1 His Tag 0.5 ug/mL, four-parameter fit
T3 construct: Bought protein coated on ELISA plates; also called human CDCP1 antigen; CDCP1 antigen; not shown: His tag
T3 sequence (looked up): T1 sequence (looked up)

[7] = target: T3, Human CDCP1, His Tag (KACTUS, Cat.No. …); assay: as above; remark: listed apart in the source

B1: MH1-6-C-2-50 (VHH)
VHH: QLQLVESGGGLVQPGGSLRLSCAASGSDVSANGMVWHRQAPGKQREWVAVISSSGSTNYADSVKGRFTISRDSDKNTMYLQMNNLKPEDTAVYLCGVAHYGQTYWGKGTLVTVSS
- OD450 [1]: 0.304

B2: h14A043 (MHAB10-PC2) (antibody, human IgG1, kappa, L234A L235A, V domains shown)
VH: QVQLVQSGAEVKKPGSSVKVSCKASGFNIKDYYMNWVRQAPGQGLEWIGWIDPENANTIYDPKFQGRVTITADESTSTAYMELSSLRSEDTAVYYCYGSSYRFTYWGQGTLVTVSS
VL: EIVLTQSPATLSLSPGERATLSCSASSSVSYLYWYQQKPGQAPRPWIYLTSNLASGVPARFSGSGSGTDFTLTISSLEPEDFAVYYCQQWSSNPFTFGGGTKVEIKR
notes: Variable regions from US20230050380A1 on Human IgG1-Kappa constant regions; also called positive control antibody
- EC50 [2]: 2.42 µg/mL
- EC50 (pM), endocytosis-mediated cell killing (Fab-ZAP, HCT116 cells) [3]: 41 pM
- EC50 [4]: 2.21 µg/mL
- EC50 [5]: 11.9 µg/mL

B3: 25A11 (MHAB10-PC1) (antibody, human IgG1, kappa, L234A L235A, V domains shown)
VH: EVQLQQPGAELVKPGASVKMSCKASGYTFTSYYMYWVKQRPGQGLEWIGEINPSHGGTNFNEKFKNKATLTVDKSSSTVYMQLSSLTSEDSAVYYCTRGGNYPYFAMDYWGQGTSVTVSS
VL: DIQMTQTTSSLSASLGDRVTISCRASQDISNYLNWYQQKPDGTVKLLIYYTSRLHSGVPSRFSGSGSGTDYSLTISNLEQEDIATYFCQQGNTLPWTFGGGTKLEIKR
notes: Variable regions from US20080008719A1 on Human IgG1-Kappa constant regions; MW printed 146kDa; also called positive control antibody
- EC50 [6]: 0.0101 µg/mL
- Top [6]: 1.35 OD450
- bottom [6]: 0.041 OD450
- EC50 [7]: 0.0115 µg/mL
- Top [7]: 1.9 OD450
- bottom [7]: 0.0395 OD450
